pKd: −log10 of the molar value.
Experiments:
[1] = molecular target: Ku70-Ku80 heterodimer deleted of its C-terminal regions (Ku70 1-544, Ku80 1-551) (human) (UniProt P12956); experiment: ITC
[2] = molecular target: full-length human Ku heterodimer (Ku70 1-609, Ku80 1-732) (human) (UniProt P12956); experiment: ITC

pKd [1]: 6.08 | fold weaker affinity than with the 42 bp DNA [1]: 7 fold | pKd [2]: 5.93
Substance: RAG2c peptide, containing motifs 1 and 2 of the RAG2 C-terminus (RAG2-KBM)

— article doi:10.1101/2023.12.12.570754
